Here are results for 5 compounds from PMC8427864, “Optimizing operational parameters for the enzymatic production of furandicarboxylic acid building block” (Microbial Cell Factories, 2021).

Data set [1] has as its target T1, HMFO (hydroxymethylfurfural oxidase) WT (Methylovorus sp. MP688, UniProt E4QP00).
T1 construct: gene MPQ_0130; synthetic gene in pET23b(+), E. coli BL21(DE3)pLysS, purified by two anion-exchange steps; FAD-containing; no tag mentioned
T1 sequence (E4QP00 1-531): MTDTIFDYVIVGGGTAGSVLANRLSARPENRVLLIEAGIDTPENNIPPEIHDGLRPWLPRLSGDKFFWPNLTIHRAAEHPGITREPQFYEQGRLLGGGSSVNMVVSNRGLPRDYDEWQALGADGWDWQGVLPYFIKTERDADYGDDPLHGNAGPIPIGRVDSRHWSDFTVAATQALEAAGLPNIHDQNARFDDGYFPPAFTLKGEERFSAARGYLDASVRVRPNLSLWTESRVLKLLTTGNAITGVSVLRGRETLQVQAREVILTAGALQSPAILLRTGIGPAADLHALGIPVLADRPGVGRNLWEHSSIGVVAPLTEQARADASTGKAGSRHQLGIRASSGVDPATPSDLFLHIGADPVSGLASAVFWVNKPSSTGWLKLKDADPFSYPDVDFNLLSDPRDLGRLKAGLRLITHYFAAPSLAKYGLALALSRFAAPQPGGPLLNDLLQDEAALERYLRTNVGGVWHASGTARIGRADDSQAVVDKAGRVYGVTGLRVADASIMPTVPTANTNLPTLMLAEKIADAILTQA
Briefly: UV-visible spectra of folded enzyme and heat-released flavin. Type of data set: binding. Conditions: flavin released at 95 °C, 5 min.

The test system of data set [2] is T2, O=Cc1ccc(CO)o1.
T2 construct: synthetic gene in pET23b(+), E. coli BL21(DE3)pLysS, purified by two anion-exchange steps; FAD-containing; no tag mentioned
In words: AmplexRed/HRP-coupled H2O2 assay, continuous steady state. It counts as biochemical, Methylovorus sp. MP688. Conditions: 50 mM Tris/HCl, pH 7.0, air oxygen as co-substrate, 8BxHMFO (Methods print G356K).

Data set [3] has as its system T3, O=Cc1ccc(C=O)o1.
T3 construct: synthetic gene in pET23b(+), E. coli BL21(DE3)pLysS, purified by two anion-exchange steps; FAD-containing; no tag mentioned
Described as above. The following applies: 50 mM Tris/HCl, pH 7.0, air oxygen as co-substrate. It counts as biochemical, Methylovorus sp. MP688. From the text: (§1) AmplexRed/HRP-coupled H2O2 assay, continuous steady state on HMFO (hydroxymethylfurfural oxidase) WT | The saturation profiles for all the variants discarded any inhibitory effect by these two substrates

Data set [4] concerns T2, O=Cc1ccc(CO)o1. Described as above. Type of data set: biochemical, Methylovorus sp. MP688. Conditions: 50 mM Tris/HCl, pH 7.0, air oxygen as co-substrate.
Source text: as §1

As for `Cc1cc2nc3c(=O)[nH]c(=O)nc-3n(C[C@H](O)[C@H](O)[C@H](O)COP(=O)(O)OP(=O)(O)OC[C@H]3O[C@@H](n4cnc5c(N)ncnc54)[C@H](O)[C@@H]3O)c2cc1C` [FAD], the “UV-visible spectra of folded enzyme and heat-released flavin” value in data set [1] is “The spectra of the folded enzymes and the free flavin, obtained by heat treatment”.
On to “HMFO (hydroxymethylfurfural oxidase) WT (Methylovorus sp. MP688; A419Y/A435E/G356H/H74Y/I73V/T414K/V367R/W466F)”, for which, in data set [2], the Km – broadly, the substrate concentration at which the rate is half of its maximum – was found to be 17.1 ± 1.6 mM and the kcat (commonly the maximal rate divided by the concentration of active sites) was found to be 0.09 ± 0.0033 s⁻¹.
Consider “HMFO (hydroxymethylfurfural oxidase) WT (Methylovorus sp. MP688; V367R)”, for which, in data set [3], the Km was determined as 1.1 ± 0.2 mM and the kcat is 0.0367 ± 0.0017 s⁻¹. In data set [4], the Km was 4.2 ± 0.3 mM and the kcat came to 0.747 ± 0.0167 s⁻¹.
The corresponding values for “HMFO (hydroxymethylfurfural oxidase) WT (Methylovorus sp. MP688; V367R/W466F)” are 4.9 ± 0.5 mM, 0.025 ± 0.00067 s⁻¹, 23.1 ± 2.8 mM and 0.0567 ± 0.0033 s⁻¹.
The corresponding values for “HMFO (hydroxymethylfurfural oxidase) WT (Methylovorus sp. MP688; W466F)” are 1.8 ± 0.3 mM, 0.005 ± 0.00017 s⁻¹, 6.4 ± 0.5 mM and 0.0233 ± 0.0005 s⁻¹.
